For assay [1], the target named is actin filaments grown from rabbit skeletal muscle actin (unlabeled ADP-F-actin) (rabbit) (UniProt P68135). Briefly: single-molecule TIRF microscopy.
The target is the same in assay [2]. As to the kind of experiment: TIRF microscopy with microfluidics.

This note sets out measurements from publication PMC7851853.

Turning to “mNeonGreen–Tpm1.8 (tropomyosin isoform Tpm1.8 fused at its N-terminus to an alanine–serine extension and to mNeonGreen) (natural protein)”, in assay [1], the Kd of an isolated Tpm1.8 molecule on the actin filament (RI/BI) amounted to 500 µM; the RI, rate of release of an isolated Tpm from the actin filament (length) is over 4.13e-08 m⋅s^-1; the RI, rate of release of an isolated Tpm from the actin filament (molecules) is over 1.25 s⁻¹; the half-life of the complex of an isolated Tpm1.8 molecule and the actin filament is under 0.6 s. Besides, in assay [2], the BB, rate constant of binding to the domain edge at the barbed end (length) was 1.19 m⋅M^-1⋅s^-1; the BBP, combined binding rate constant at both domain edges (length) was determined as 1.83 m⋅M^-1⋅s^-1; the BBP, combined binding rate constant at both domain edges (molecules) worked out at 5.6e+07 M^-1⋅s^-1; the BP, rate constant of binding to the domain edge at the pointed end (length) amounted to 0.64 m⋅M^-1⋅s^-1. Further, in assay [2], the RB, rate of release from the domain edge at the barbed end (length) was 1.98e-09 m⋅s^-1; the RB, rate of release from the domain edge at the barbed end (molecules) worked out at 0.061 s⁻¹; the RBP, combined release rate at both domain edges (length) is 3.05e-09 m⋅s^-1; the RBP, combined release rate at both domain edges (molecules) came out at 0.094 s⁻¹. In assay [2], this substance returned an RP, rate of release from the domain edge at the pointed end (length) of 1.07e-09 m⋅s^-1; an RP, rate of release from the domain edge at the pointed end (molecules) of 0.033 s⁻¹; a critical concentration for elongation (affinity at the domain edge) of 1.65 nM; a half-life of a molecule bound at the domain edge at the barbed end of 11 s. In addition, the half-life of a molecule bound at the domain edge at the pointed end in assay [2] is 21 s.
